Test results from FireProtDB (doi:10.1093/protein/gzu024).

Details: Homo sapiens; pH 7.4; 23 °C; GdnSCN; fluorescence; Potassium phosphate buffer; NaCl; transition: 2; reversible: yes; structure 1TEN
For “Tenascin, P24821 T888C E870C I833C S875C”, the denaturant m value was 4.17 kcal/mol/M, the “denaturant midpoint (higher = more stable)” value was 1.79 M and the unfolding free energy was 7.44 kcal/mol.

Same assay, conditions: Homo sapiens; pH 7.4; Thermal; DSC; Potassium phosphate buffer; NaCl; transition: 2; reversible: yes; structure 1TEN
With Tenascin, P24821 A885V the Tm was 59.8 °C and the “change of melting temperature, mutant - wild type (higher = more stable)” value (from here on “change of melting temperature, mutant”) was 1.1 °C.
With Tenascin, P24821 D850K the Tm was 63.7 °C and the “change of melting temperature, mutant” value was 5 °C.
In the case of Tenascin, P24821 E887I, the Tm is reported as 69.9 °C and the “change of melting temperature, mutant” value is reported as 11.2 °C.
With Tenascin, P24821 E887I T890K the Tm was 74.9 °C and the “change of melting temperature, mutant” value was 16.2 °C.
In the case of Tenascin, P24821 E887I T890K D850K, the Tm is reported as 80.5 °C and the “change of melting temperature, mutant” value is reported as 21.8 °C.
In the case of “Tenascin, P24821 E887I T890K D850K I833F”, the Tm is reported as 82.6 °C and the “change of melting temperature, mutant” value is reported as 23.9 °C.
In the case of Tenascin, P24821 I833F, the Tm is reported as 61 °C and the “change of melting temperature, mutant” value is reported as 2.3 °C.
In the case of Tenascin, P24821 L820K, the Tm is reported as 56.7 °C and the “change of melting temperature, mutant” value is reported as -2 °C.
With Tenascin, P24821 Q808K the Tm was 59.9 °C and the “change of melting temperature, mutant” value was 1.2 °C.
Substance “Tenascin, P24821 T888C E870C I833C S875C” has a Tm of 80.6 °C.
With Tenascin, P24821 T890K the Tm was 63.9 °C and the “change of melting temperature, mutant” value was 5.2 °C.
Tenascin, P24821 V811C I821C gave a Tm of 50.6 °C.
